Test results reported in the supplement of paper PMC9112550, “Optimization of the antimicrobial peptide Bac7 by deep mutational scanning” (BMC Biology, 2022).

System: Escherichia coli TOP10
Experiment: shrunken log2 fold change of peptide-encoding DNA abundance (4.5 h post-induction vs induction); higher = less antimicrobial activity (less host growth inhibition)
Conditions: time post-induction: 4.5 h; library: site-saturation at positions 5, 18, 19, 20
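Further: peptides expressed intracellularly from a pBAD plasmid library in pooled LB shake-flask culture, induced with 0.3% L-arabinose, DNA abundance read by NGS, three biological replicates, DESeq2 with apeglm shrinkage.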

RRIRWRPPRLPRPRPRPKCHPRP
shrunken log2 fold change: 0.206

RRIRERPPRLPRPRPRPDTCPRP
shrunken log2 fold change: -0.0337

RRIRQRPPRLPRPRPRPRSMPRP
shrunken log2 fold change: 0.33

RRIRVRPPRLPRPRPRPCQWPRP
shrunken log2 fold change: -0.0851

RRIRWRPPRLPRPRPRPMGYPRP
shrunken log2 fold change: -0.132

RRIRSRPPRLPRPRPRPFERPRP
shrunken log2 fold change: -0.00192

RRIRIRPPRLPRPRPRPIVWPRP
shrunken log2 fold change: 0.136

RRIRARPPRLPRPRPRPTSCPRP
shrunken log2 fold change: -0.15

RRIRHRPPRLPRPRPRPIVDPRP
shrunken log2 fold change: 0.0237

RRIRFRPPRLPRPRPRPLEFPRP
shrunken log2 fold change: -0.0464

RRIRWRPPRLPRPRPRPQMIPRP
shrunken log2 fold change: -0.0866

RRIRDRPPRLPRPRPRPIQWPRP
shrunken log2 fold change: -0.153

RRIRMRPPRLPRPRPRPNMYPRP
shrunken log2 fold change: 0.0412

RRIRPRPPRLPRPRPRPFPGPRP
shrunken log2 fold change: -0.226

RRIRHRPPRLPRPRPRPVFRPRP
shrunken log2 fold change: 0.0291

RRIRQRPPRLPRPRPRPYLYPRP
shrunken log2 fold change: -0.838

RRIRCRPPRLPRPRPRPSLQPRP
shrunken log2 fold change: -0.455

RRIRFRPPRLPRPRPRPSFHPRP
shrunken log2 fold change: -0.694

RRIRLRPPRLPRPRPRPFDPPRP
shrunken log2 fold change: -0.352

RRIRRRPPRLPRPRPRPMNFPRP
shrunken log2 fold change: 0.154

RRIRKRPPRLPRPRPRPQEHPRP
shrunken log2 fold change: 0.0487

RRIRFRPPRLPRPRPRPVCIPRP
shrunken log2 fold change: -0.541

RRIRQRPPRLPRPRPRPKIIPRP
shrunken log2 fold change: -0.367

RRIRWRPPRLPRPRPRPRRQPRP
shrunken log2 fold change: -0.0653

RRIRMRPPRLPRPRPRPHGQPRP
shrunken log2 fold change: 0.155

RRIRNRPPRLPRPRPRPWNEPRP
shrunken log2 fold change: -0.233

RRIRERPPRLPRPRPRPNITPRP
shrunken log2 fold change: -0.738

RRIRQRPPRLPRPRPRPVHHPRP
shrunken log2 fold change: 0.04

RRIRCRPPRLPRPRPRPWCAPRP
shrunken log2 fold change: -0.0685

RRIRYRPPRLPRPRPRPSTFPRP
shrunken log2 fold change: -0.282

RRIRRRPPRLPRPRPRPTIDPRP
shrunken log2 fold change: -0.0234

RRIRHRPPRLPRPRPRPEHMPRP
shrunken log2 fold change: -0.177

RRIRARPPRLPRPRPRPGVMPRP
shrunken log2 fold change: 0.437

RRIRWRPPRLPRPRPRPLYTPRP
shrunken log2 fold change: -0.24

RRIRVRPPRLPRPRPRPDEQPRP
shrunken log2 fold change: 0.353

RRIRCRPPRLPRPRPRPDIVPRP
shrunken log2 fold change: -0.0875

RRIRDRPPRLPRPRPRPKMKPRP
shrunken log2 fold change: -0.42

RRIRKRPPRLPRPRPRPLKTPRP
shrunken log2 fold change: -0.151

RRIRYRPPRLPRPRPRPVFEPRP
shrunken log2 fold change: 0.0623

RRIRERPPRLPRPRPRPANCPRP
shrunken log2 fold change: -0.65

RRIRHRPPRLPRPRPRPCVMPRP
shrunken log2 fold change: -0.239

RRIRRRPPRLPRPRPRPRATPRP
shrunken log2 fold change: 0.162

RRIRPRPPRLPRPRPRPSEHPRP
shrunken log2 fold change: -0.233

RRIRNRPPRLPRPRPRPYRYPRP
shrunken log2 fold change: 0.0342

RRIRVRPPRLPRPRPRPHGKPRP
shrunken log2 fold change: -0.389

RRIRDRPPRLPRPRPRPTSYPRP
shrunken log2 fold change: -0.189

RRIRNRPPRLPRPRPRPKPDPRP
shrunken log2 fold change: 0.355

RRIRPRPPRLPRPRPRPRMIPRP
shrunken log2 fold change: 0.0799

RRIRMRPPRLPRPRPRPTWNPRP
shrunken log2 fold change: 0.188

RRIRSRPPRLPRPRPRPGDHPRP
shrunken log2 fold change: -0.338

RRIRGRPPRLPRPRPRPMCMPRP
shrunken log2 fold change: 0.509

RRIRDRPPRLPRPRPRPRFFPRP
shrunken log2 fold change: 0.226

RRIRWRPPRLPRPRPRPYTVPRP
shrunken log2 fold change: -0.29

RRIRTRPPRLPRPRPRPWDVPRP
shrunken log2 fold change: -0.092

RRIRKRPPRLPRPRPRPKLMPRP
shrunken log2 fold change: 0.267

RRIRTRPPRLPRPRPRPRWHPRP
shrunken log2 fold change: 0.133

RRIRDRPPRLPRPRPRPVENPRP
shrunken log2 fold change: -0.127

RRIRIRPPRLPRPRPRPEAFPRP
shrunken log2 fold change: 0.0813

RRIRIRPPRLPRPRPRPMYVPRP
shrunken log2 fold change: 0.00823

RRIRTRPPRLPRPRPRPIENPRP
shrunken log2 fold change: 0.0452

RRIRQRPPRLPRPRPRPIHEPRP
shrunken log2 fold change: -0.0182

RRIRHRPPRLPRPRPRPSFTPRP
shrunken log2 fold change: -0.632

RRIRVRPPRLPRPRPRPLTIPRP
shrunken log2 fold change: -0.329

RRIRDRPPRLPRPRPRPQHGPRP
shrunken log2 fold change: 0.587

RRIRVRPPRLPRPRPRPFKSPRP
shrunken log2 fold change: 0.0446

RRIRARPPRLPRPRPRPTRTPRP
shrunken log2 fold change: 0.653

RRIRYRPPRLPRPRPRPGVSPRP
shrunken log2 fold change: 0.0695

RRIRQRPPRLPRPRPRPNKWPRP
shrunken log2 fold change: -0.0433

RRIRSRPPRLPRPRPRPECWPRP
shrunken log2 fold change: 1.03

RRIRLRPPRLPRPRPRPMQSPRP
shrunken log2 fold change: 0.0626

RRIRARPPRLPRPRPRPRGQPRP
shrunken log2 fold change: 0.666

RRIRVRPPRLPRPRPRPPLTPRP
shrunken log2 fold change: 0.119

RRIRNRPPRLPRPRPRPRLEPRP
shrunken log2 fold change: 0.317

RRIRYRPPRLPRPRPRPQHQPRP
shrunken log2 fold change: -0.304

RRIRWRPPRLPRPRPRPYYHPRP
shrunken log2 fold change: -0.306

RRIRNRPPRLPRPRPRPHHKPRP
shrunken log2 fold change: -0.461

RRIRDRPPRLPRPRPRPRPFPRP
shrunken log2 fold change: 0.691

RRIRCRPPRLPRPRPRPNNEPRP
shrunken log2 fold change: -0.529

RRIRVRPPRLPRPRPRPTWWPRP
shrunken log2 fold change: 0.0544

RRIRMRPPRLPRPRPRPDYDPRP
shrunken log2 fold change: 0.635

RRIRFRPPRLPRPRPRPDTPPRP
shrunken log2 fold change: 1.5

RRIRRRPPRLPRPRPRPMCHPRP
shrunken log2 fold change: -0.191

RRIRTRPPRLPRPRPRPIGGPRP
shrunken log2 fold change: -0.000462

RRIRARPPRLPRPRPRPWSTPRP
shrunken log2 fold change: 0.0839

RRIRWRPPRLPRPRPRPHYSPRP
shrunken log2 fold change: -0.279

RRIRERPPRLPRPRPRPSHKPRP
shrunken log2 fold change: -0.437

RRIRHRPPRLPRPRPRPPTFPRP
shrunken log2 fold change: -0.0769

RRIRHRPPRLPRPRPRPPAEPRP
shrunken log2 fold change: 0.0536

RRIRTRPPRLPRPRPRPDHRPRP
shrunken log2 fold change: 0.0733

RRIRNRPPRLPRPRPRPDINPRP
shrunken log2 fold change: -0.482

RRIRLRPPRLPRPRPRPFFVPRP
shrunken log2 fold change: -0.168

RRIRQRPPRLPRPRPRPIPLPRP
shrunken log2 fold change: -0.182

RRIRYRPPRLPRPRPRPFFWPRP
shrunken log2 fold change: -0.03

RRIRMRPPRLPRPRPRPQARPRP
shrunken log2 fold change: 0.575

RRIRSRPPRLPRPRPRPHIMPRP
shrunken log2 fold change: -0.393

RRIRLRPPRLPRPRPRPSRPPRP
shrunken log2 fold change: 0.233

RRIRMRPPRLPRPRPRPTPPPRP
shrunken log2 fold change: 1.17

RRIRDRPPRLPRPRPRPKCAPRP
shrunken log2 fold change: 0.169

RRIRGRPPRLPRPRPRPPLRPRP
shrunken log2 fold change: 0.796

RRIRGRPPRLPRPRPRPMPDPRP
shrunken log2 fold change: 0.13

RRIRVRPPRLPRPRPRPPPAPRP
shrunken log2 fold change: 1.07

RRIRIRPPRLPRPRPRPLPFPRP
shrunken log2 fold change: -1.01

RRIRIRPPRLPRPRPRPIWVPRP
shrunken log2 fold change: -0.145

RRIRIRPPRLPRPRPRPYIHPRP
shrunken log2 fold change: -1.3

RRIRSRPPRLPRPRPRPVFIPRP
shrunken log2 fold change: -0.598

RRIRQRPPRLPRPRPRPFAPPRP
shrunken log2 fold change: 0.0897

RRIRIRPPRLPRPRPRPYVCPRP
shrunken log2 fold change: 0.0199

RRIRLRPPRLPRPRPRPPRHPRP
shrunken log2 fold change: 0.377

RRIRFRPPRLPRPRPRPGPWPRP
shrunken log2 fold change: 0.216

RRIRARPPRLPRPRPRPYIYPRP
shrunken log2 fold change: -0.346

RRIRMRPPRLPRPRPRPCTNPRP
shrunken log2 fold change: 0.0685

RRIRWRPPRLPRPRPRPVHPPRP
shrunken log2 fold change: -0.23

RRIRERPPRLPRPRPRPEKGPRP
shrunken log2 fold change: -0.0493

RRIRERPPRLPRPRPRPNTMPRP
shrunken log2 fold change: -0.122

RRIRIRPPRLPRPRPRPPDHPRP
shrunken log2 fold change: -0.134

RRIRKRPPRLPRPRPRPWKMPRP
shrunken log2 fold change: 0.0749

RRIRRRPPRLPRPRPRPLDPPRP
shrunken log2 fold change: 0.5

RRIRWRPPRLPRPRPRPKDPPRP
shrunken log2 fold change: -0.0777

RRIRNRPPRLPRPRPRPHWQPRP
shrunken log2 fold change: -0.115

RRIRPRPPRLPRPRPRPCSRPRP
shrunken log2 fold change: 0.0759

RRIRLRPPRLPRPRPRPENWPRP
shrunken log2 fold change: 0.046

RRIRQRPPRLPRPRPRPQWKPRP
shrunken log2 fold change: -0.0075

RRIRFRPPRLPRPRPRPDCCPRP
shrunken log2 fold change: -0.0954

RRIRMRPPRLPRPRPRPLHAPRP
shrunken log2 fold change: 1.29

RRIRLRPPRLPRPRPRPSNLPRP
shrunken log2 fold change: -0.181

RRIRWRPPRLPRPRPRPEYQPRP
shrunken log2 fold change: 0.0269

RRIRGRPPRLPRPRPRPKYDPRP
shrunken log2 fold change: 1.62

RRIRYRPPRLPRPRPRPAYRPRP
shrunken log2 fold change: -0.0312

RRIRKRPPRLPRPRPRPFWMPRP
shrunken log2 fold change: 0.0752

RRIRERPPRLPRPRPRPLWWPRP
shrunken log2 fold change: 0.0601

RRIRPRPPRLPRPRPRPYDNPRP
shrunken log2 fold change: -0.415

RRIRGRPPRLPRPRPRPASLPRP
shrunken log2 fold change: 0.472

RRIRARPPRLPRPRPRPFTYPRP
shrunken log2 fold change: -0.0975

RRIRVRPPRLPRPRPRPFLQPRP
shrunken log2 fold change: 0.15

RRIRCRPPRLPRPRPRPCIRPRP
shrunken log2 fold change: -0.145

RRIRRRPPRLPRPRPRPYIFPRP
shrunken log2 fold change: -0.639

RRIRIRPPRLPRPRPRPKPFPRP
shrunken log2 fold change: -0.00302

RRIRRRPPRLPRPRPRPLKDPRP
shrunken log2 fold change: -0.152

RRIRHRPPRLPRPRPRPSWIPRP
shrunken log2 fold change: -0.171

RRIRVRPPRLPRPRPRPCAFPRP
shrunken log2 fold change: -0.264

RRIRQRPPRLPRPRPRPEMLPRP
shrunken log2 fold change: 0.0554

RRIRVRPPRLPRPRPRPGQWPRP
shrunken log2 fold change: 0.0407

RRIRFRPPRLPRPRPRPCHYPRP
shrunken log2 fold change: -0.211

RRIRGRPPRLPRPRPRPLNKPRP
shrunken log2 fold change: 0.11

RRIRERPPRLPRPRPRPWPFPRP
shrunken log2 fold change: -0.0819

RRIRHRPPRLPRPRPRPFCWPRP
shrunken log2 fold change: 0.252

RRIRWRPPRLPRPRPRPTAIPRP
shrunken log2 fold change: 0.806

RRIRFRPPRLPRPRPRPSTMPRP
shrunken log2 fold change: -0.391

RRIRVRPPRLPRPRPRPIACPRP
shrunken log2 fold change: 0.0889

RRIRMRPPRLPRPRPRPDDVPRP
shrunken log2 fold change: -0.00192
